Measured values published in US20250027068A1 (published 2025).

Target: pooled human IgG (human)
Assay: cell-based or functional assay
Note: test concentration or dose not given here.

Binder	Enzyme Activity Endpoint Assay (purified): Fab′2 [ng/µL]	Enzyme Activity Endpoint Assay (purified): Fc [ng/µL]	Enzyme Activity Endpoint Assay (purified): IgG [ng/µL]	Enzyme Activity Endpoint Assay (purified): scIgG [ng/µL]
PRT-205 (enzyme) MEVVEVWPYGQNPNGKTEILSQTEDSESLQRLRDIEDFQAEKKKEGVVYTKWLDGVDVDDHDFRKIVDGNIAYYATPLLNGRGFYDINKDFNRDSDKCAAAVAANMFHYWLDRNRDNVDRFLKQNPEKHGIIELPDGQLKLSDFLNTYESDNGYRDKSKLFDFISNNFNGPVWTDKLLDNYINGYAYNYKYGRTIEDPTKNTSKINFFKEVFNEKILTNNHSIRNYNTFSDLLSEALYTGKAIGLSYGPAGLRHSLGHIISVWGADLDADGNVVAIYVTDSDDKKLTIGDERVGLKRYKVSSDDENRLRLTAYEETHNTGGQIRGIYTLDTGKQAWADYFDKTEQTGTDQAEQLEHHHHHH	127	216	1090	278
PRT-196 (enzyme) MEVVEVWPYGQNPNGKTEILSQTEDSESLQRLRDIEDFQAEKKMQNVVYTKWLDGVDVKDHDFRKIVDGNIAYYATPLLNGRGFYDINKDFNRDSDKCAAAVAANMFHYWLDINRDNVDRFLRQNPEKHGIIELPDGQLKLSDFLNTYESDHGYRDKSKLFDFISNNFNGPVWTDKLLDNYINGYAYNYKYGRTIEDPTKNTSKINFFKEVFNEKILTNNHSIRNQNEFSVLLSEALYTGKAIGLSYGPAGLRHSLGHIISVWGADLDADGNVVAIYVTDSDDKKLTIGDERVGLKRYKISTDDENRLRLTAYEETHNTGGQIRGLWTLDTGKYAWADYFDKTEQTGTDQAEQLEHHHHHH	152	498	707	504
PRT-201 (enzyme) MEVVEVWPYGQNPNGKTEILSQTEDSESLQRLRDIEDFQAEKKKQNVVYTKWLDGVDVKDHDFRKIKDGNIEYYATPLLNGRGFYDINKDFNRDSDKCAAAVAANMFHYWLDRNRDNVDRFLRQNPEKHGIIELPDGQLKLSDFLNTYESDDGYRDKSKLFDFISNNFNGPVWTDKLLDNYINGYAYNYKYGRTIEDPTKNTSKINFFKEVFNEKILTNNHSIRNQNEFSVLLSEALYTGKAIGLSYGPAGLRHSLGHIISVWGADLDADGNVVAIYVTDSDDKKLTIGDERVGLKRYKISTDDEGRARLTAYEETHNTGGQIRGLYTLDTGKQAWADYFDKTEQTGTDQAEQLEHHHHHH	0	0	2720	0
PRT-200 (enzyme) MEVVEVWPYGQNPNGKTEILSQTEDSESLQRLRDIEDFQAEKKMQNVVYTKWLDGVDVKDHDFRKIVDGNIAYYATPLLNGRGFYDINKDFNRDSDKCAAAVAANMFHYWLDINRDNVDRFLRQNPEKHGIIELPDGQLKLSDFLNTYESDHGYRDKSKLFDFISNNFNGPVWTDKLLDNYINGYAYNYKYGRTIEDPTKNTSKINFFKEVFNEKILTNNHSIRNQNEFSDLLSEALYTGKAIGLSYGPAGLRHSLGHIISVWGADLDADGNVVAIYVTDSDDKKLTIGDERVGLKRYKISTDDENRARLTAYEETDNTGGQIRGLWTLDTGKQAWADYFDKTEQTGTDQAEQLEHHHHHH	0	0	2510	0
PRT-202 (enzyme) MEVVEVWPYGQNPNGKTEILSQTEDSESLQRLRDIEDFQAEKKKQNVVYTKWLDGVDVKDHDFRKIVDGNIAYYATPLLNGRGFYDINKDFNRDSDKCAAAVAANMFHYWLDINRDNVDRFLRQNPEKHGIIELPDGQLKLSDFLNTYESDYGYRDKSKLFDFISNNFNGPVWTDKLLDNYINGYAYNYKYGRTIEDPTKNTSKINFFKKVFNEKILTNIHSIRNQNEFSDLLSEALYTGKAIGLSYGPAGLRHSLGHIISVWGADLDADGNVVAIYVTDSDDKKLTIGDERVGLKRYKISTDDEGRLRLTAYEETDNTGGEIRGLYTLDTGKQAWADYFDKTEQTGTDQAEQLEHHHHHH	25	402	1130	553
PRT-199 (enzyme) MEVVEVWPYGQNPNGKTEILSQTEDSESLQRLRDIEDFQAEKKKQNVVYTKWLDGVDVKDHDFRKIVDGNIAYYATPLLNGRGFYDINKDFNRDSDKCAAAVAANMFHYWLDRNRDNVDRFLRQNPEKHGIIELPDGQLKLSDFLNTYESDDGYRDKSKLFDFISNNFNGPVWTDKLLDNYINGYAYNYKYGRTIEDPTKNTSKINFFKEVFNEKILTNNHSIRNQNEFSVLLSEALYTGKAIGLSYGPAGLRHSLGHIISVWGADLDADGNVVAIYVTDSDDKKLTIGDERVGLKRYKISTDDEGRLRLTAYEETHNTGGQIRGLWTLDTGKQAWADYFDKTEQTGTDQAEQLEHHHHHH	95	473	797	544
PRT-198 (enzyme) MEVVEVWPYGQNPNGKTEILSQTEDSESLQRLRDIEDFQAEKKKQGVVYTKWLDGVDVKDHDFRKIVDGNIAYYATPLLNGRGFYDINKDFNRDSDKCAAAVAANMFHYWLDINRDNVDRFLRQNPEKHGIIELPDGQLKLSDFLNTYESDHGYRDKSKLFDFISNNFNGPVWTDKLLDNYINGYAYNYKYGRTIEDPTKNTSKINFFKEVFNEKILTNNHSIRNQNEFSDLLSEALYTGKAIGLSYGPAGLRHSLGHIISVWGADLDADGNVVAIYVTDSDDKKLTIGDERVGLKRYKISTDDENRLRLTAYEETHNTGGQIRGLYTLDTGKQAWADYFDKTEQTGTDQAEQLEHHHHHH	621	0	2320	0
PRT-204 (enzyme) MEVVEVWPYGQNPNGKTEILSQTEDSESLQRLRDIEDFQAEKKMQNVVYTKWLDGVTVKDHDFRKIVDGNIAYYATPLLNGRGFYDINKDFNRDSDKCAAAVAANMFHYWLDRNRDNVDRFLSQNPEKHGIIELPDGQLKLSDFLNTYESDNGYRDKSKLFDFISNNFNGPVWTDKLLDNYINGYAYNYKYGRTIEDPTKNTSKINFFKEVFNEKILTNIHSIRNQNEFSDLLSEALYTGKAIGLSYGPAGLRHSLGHIISVWGADLDADGNVVAIYVTDSDDKKLTIGDERVGLKRYKISTDDEGRARLTAYEETDNTGGQIRGLETLDTGKYAWADYFDKTEQTGTDQAEQLEHHHHHH	0	0	2260	0
PRT-203 (enzyme) MEVVEVWPYGQNPNGKTEILSQTEDSESLQRLRDIEDFQAEKKKQNVVYTKWLDGVDVKDHDFRKIKDGNIEYYATPLLNGRGFYDINKDFNRDSDKCAAAVAANMFHYWLDRNRDNVDRFLRQNPEKHGIIELPDGQLKLSDFLNTYESDDGYRDKSKLFDFISNNFNGPVWTDKLLDNYINGYAYNYKYGRTIEDPTKNTSKINFFKEVFNEKILTNNHSIRNQNEFSVLLSEALYTGKAIGLSYGPAGLRHSLGHIISVWGADLDADGNVVAIYVTDSDDKKLTIGDERVGLKRYKISTDDEGRARLTAYEETHNTGGQIRGLWTLDTGKQAWADYFDKTEQTGTDQAEQLEHHHHHH	0	0	2130	0
PRT-197 (enzyme) MEVVEVWPYGQNPNGKTEILSQTEDSESLQRLRDIEDFQAEKKMQNVVYTKWLDGVDVKDHDFRKIVDGNIAYYATPLLNGRGFYDINKDFNRDSDKCAAAVAANMFHYWLDINRDNVDRFLRQNPEKHGIIELPDGQLKLSDFLNTYESDHGYRDKSKLFDFISNNFNGPVWTDKLLDNYINGYAYNYKYGRTIEDPTKNTSKINFFKEVFNEKILTNNHSIRNQNEFSDLLSEALYTGKAIGLSYGPAGLRHSLGHIISVWGADLDADGNVVAIYVTDSDDKKLTIGDERVGLKRYKISTDDENRARLTAYEETDNTGGQIRGLYTLDTGKQAWADYFDKTEQTGTDQAEQLEHHHHHH	0	179	1800	121
PRT-206 (enzyme) MEVVEVWPYGQNPNGKTEILSQTEDSESLQRLRDIEDFQAEKKKENVVYTKWLDGVTVKDHDFRKIVDGNIAYYATPLLNGRGFYDINKDFNRDSDKCAAAVAANMFHYWLDINRDNVDRFLRQNPEKHGIIELPDGQLKLSDFLNTYESDDGYRDKSKLFDFISNNFNGPVWTDKLLDNYINGYGYNYKYGRTIEDPTKNTSKINFFKEVFNEKILTDNHSIRDQNEFSDLLSEALYTGKAIGLSYGPAGLRHSLGHIISVWGADLDADGNVVAIYVTDSDDKKLTIGDERVGLKRYKISYDDEGRARLTAYEEKDNTGGQIRGLYTLDTGKQAWADYFDKTEQTGTDQAEQLEHHHHHH	570	0	2130	0
PRT-194 (enzyme) MANQEIRYSEVTPYHVTSVWTKGVTPPDHDFANFTQGEDVFHAPYVANQGWYDITKTFNGKDDLLCGAATAGNMLHWWFDQNKDQIKRYLEEHPEKQKINFNGEQMFDVKEAIDTKNHQLDSKLFEYFKEKAFPYLSTKHLGVFPDHVIDMFINGYRLSLTNHGPTPVKEGSKDPRGGIFDAVFTRGDQSKLLTSRHDFKEKNLKEISDLIKKELTEGKALGLSHTYANVRHSINHVINLWGADFDSNGNLKAIYVTDSDDKKLTISNASIGMKKYFVGVNSAGKVAISAKEIKEDNIGAQVLGLFTLSTGQDSWNQTN	0	12	301	0
PRT-195 (enzyme) MANQEIRYSEVTPYHVTSVWTKGVTPPDHDFRKIVDGEDVFHAPYVANQGWYDITKTFNGKDDLLCGAATAGNMLHWWFDQNKDQIKRYLEEHPEKQKINFNGEQMFDVKEAIDTKNHQLDSKLFEYFKEKAFPYLSTKHLGVFPDHVIDMFINGYRLSLTNHGPTPVKEGSKDPRGGIFDAVFTRGDQSKLLTSRHDFKEKNLKEISDLIKKELTEGKALGLSHTYANVRHSINHVINLWGADFDSNGNLKAIYVTDSDDKKLTIGDERIGMKKYFVGVNSAGKVAISAKEIKEDNIGAQVLGLFTLSTGQDSWNQTN	0	30	829	15
